Measured values published in patent US20060257938A1, “Method of screening for drugs that block ligand binding to a lipid binding protein” (priority 2005, published 2006).
Where a chain is given by its changes, count along the chain named. “And” between values parts separate entries of the source, which are not always exact repeats. Equal entries are not always repeated.

B1: 55S1, 72A (protein, listed as Rattus norvegicus)
chain: AFDGTWKVDRNENYEKFMEKMGINVVKRKLGAHDNLKLTITQEGNKFTVKESSNSRNIDVVFELGVDFAYSAADGTELTGTWTMEGNKLVGKFKRVDNGKELIAVREISGNELIQTYTYEGVEAKRIFKKE
modifications: PEPTIDE (1)...(131) wild-type rat intestinal fatty acid binding protein
B2: 60H, 72A (protein, listed as Rattus norvegicus)
chain: B1 chain with S55F, V60H
modifications: PEPTIDE (1)...(131) wild-type rat intestinal fatty acid binding protein
B3: 60S, 72A (protein, listed as Rattus norvegicus)
chain: B1 chain with S55F, V60S
modifications: PEPTIDE (1)...(131) wild-type rat intestinal fatty acid binding protein
B4: 60Q, 72A (protein, listed as Rattus norvegicus)
chain: B1 chain with S55F, V60Q
modifications: PEPTIDE (1)...(131) wild-type rat intestinal fatty acid binding protein
B5: 55T1, 72A (protein, listed as Rattus norvegicus)
chain: B1 chain with S55T
modifications: PEPTIDE (1)...(131) wild-type rat intestinal fatty acid binding protein
B6: 60P, 72A (protein, listed as Rattus norvegicus)
chain: B1 chain with S55F, V60P
modifications: PEPTIDE (1)...(131) wild-type rat intestinal fatty acid binding protein
B7: 55W2, 72A (protein, listed as Rattus norvegicus)
chain: B1 chain with S55W
modifications: PEPTIDE (1)...(131) wild-type rat intestinal fatty acid binding protein
B8: 55Y3, 72A (protein, listed as Rattus norvegicus)
chain: B1 chain with S55Y
modifications: PEPTIDE (1)...(131) wild-type rat intestinal fatty acid binding protein
B9: 60I, 72A (protein, listed as Rattus norvegicus)
chain: B1 chain with S55F, V60I
modifications: PEPTIDE (1)...(131) wild-type rat intestinal fatty acid binding protein
B10: 62A, 72A (protein, listed as Rattus norvegicus)
chain: B1 chain with S55F, F62A
modifications: PEPTIDE (1)...(131) wild-type rat intestinal fatty acid binding protein
B11: 60A, 72A (protein, listed as Rattus norvegicus)
chain: B1 chain with S55F, V60A
modifications: PEPTIDE (1)...(131) wild-type rat intestinal fatty acid binding protein
B12: 60N, 72A (protein, listed as Rattus norvegicus)
chain: B1 chain with S55F, V60N
modifications: PEPTIDE (1)...(131) wild-type rat intestinal fatty acid binding protein
B13: 60W, 72A (protein, listed as Rattus norvegicus)
chain: B1 chain with S55F, V60W
modifications: PEPTIDE (1)...(131) wild-type rat intestinal fatty acid binding protein
B14: 60F, 72A (protein, listed as Rattus norvegicus)
chain: B1 chain with S55F, V60F
modifications: PEPTIDE (1)...(131) wild-type rat intestinal fatty acid binding protein
B15: 60K, 72A (protein, listed as Rattus norvegicus)
chain: B1 chain with S55F, V60K
modifications: PEPTIDE (1)...(131) wild-type rat intestinal fatty acid binding protein
B16: 60C, 72A (protein, listed as Rattus norvegicus)
chain: B1 chain with S55F, V60C
modifications: PEPTIDE (1)...(131) wild-type rat intestinal fatty acid binding protein
B17: 60M, 72A (protein, listed as Rattus norvegicus)
chain: B1 chain with S55F, V60M
modifications: PEPTIDE (1)...(131) wild-type rat intestinal fatty acid binding protein
B18: 60R, 72A (protein, listed as Rattus norvegicus)
chain: B1 chain with S55F, V60R
modifications: PEPTIDE (1)...(131) wild-type rat intestinal fatty acid binding protein
B19: 60G, 72A (protein, listed as Rattus norvegicus)
chain: B1 chain with S55F, V60G
modifications: PEPTIDE (1)...(131) wild-type rat intestinal fatty acid binding protein
B20: 62C, 72A (protein, listed as Rattus norvegicus)
chain: B1 chain with S55F, F62C
modifications: PEPTIDE (1)...(131) wild-type rat intestinal fatty acid binding protein
B21: 60L, 72A (protein, listed as Rattus norvegicus)
chain: B1 chain with S55F, V60L
modifications: PEPTIDE (1)...(131) wild-type rat intestinal fatty acid binding protein
B22: 60T, 72A (protein, listed as Rattus norvegicus)
chain: B1 chain with S55F, V60T
modifications: PEPTIDE (1)...(131) wild-type rat intestinal fatty acid binding protein

Assay: Probe fluorescence ratio response to linolenic acid relative to ADIFAB2
Format: binding
Conditions: response relative to ADIFAB2
In short: (§1)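 Each fatty acid's response was expressed relative to ADIFAB2, the rI-FABP-L72A probe, as ΔR/ΔRreference. ΔR is the change in the background-corrected two-wavelength intensity ratio R=Fλ1/Fλ2 from its analyte-free baseline R0. Emission was read near about 420-480 nm for unbound and about 495-580 nm for FFA-bound probe.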

Molecule | DR/DR LNA
B1 | 0.43
B2 | 0.18
B3 | 0.71
B4 | 0.42
B5 | 1.27
B6 | 0.77
B7 | 0.82
B8 | 0.34
B9 | 1.63 and 1.632
B10 | 1.08
B11 | 0.94 and 0.938
B12 | 1.59
B13 | 0.74 and 0.739
B14 | 1.76 and 1.762
B15 | 0.57 and 0.582
B16 | 1.36
B17 | 0.93
B18 | 0.14
B19 | 0.24
B20 | 1.31
B21 | 1.26
B22 | 1.73

Assay: Probe fluorescence ratio response to arachidonic acid relative to ADIFAB2
Format: binding
Conditions: Arachidonic acid; response relative to ADIFAB2
In short: as §1

Molecule | DR/DR AA
B1 | 0.48
B2 | 0.17
B3 | 0.56
B4 | 0.36
B5 | 1.26
B6 | 0.62
B7 | 0.77
B8 | 0.47
B9 | 1.54
B10 | 1.08
B11 | 0.79
B12 | 1.24
B13 | 0.67
B14 | 1.79
B15 | 0.46
B16 | 1.30
B17 | 0.77
B18 | 0.14
B19 | 0.29
B20 | 1.30
B21 | 1.08
B22 | 1.72

Same assay, conditions: arachidonic acid; response relative to ADIFAB2

Molecule | DR/DR AA
B9 | 1.539
B11 | 0.787
B13 | 0.670
B14 | 1.792
B15 | 0.461
B21 | 1.075

Assay: Probe fluorescence ratio response to palmitic acid relative to ADIFAB2
Format: binding
Conditions: response relative to ADIFAB2
In short: as §1

Molecule | DR/DR PA
B1 | 0.41
B2 | 0.12
B3 | 0.59
B4 | 0.35
B5 | 1.12
B6 | 0.37
B7 | 0.63
B8 | 0.25
B9 | 1.52
B10 | 0.57
B11 | 0.74 and 0.742
B12 | 1.30
B13 | 0.59 and 0.595
B14 | 1.53 and 1.526
B15 | 0.35 and 0.310
B16 | 1.04
B17 | 0.76
B18 | 0.08
B19 | 0.19
B20 | 1.18
B21 | 1.10 and 1.095
B22 | 1.49

Assay: Probe fluorescence ratio response to oleic acid relative to ADIFAB2
Format: binding
Conditions: response relative to ADIFAB2
In short: as §1

Molecule | DR/DR OA
B1 | 0.41
B2 | 0.17
B3 | 0.67
B4 | 0.41
B5 | 1.28
B6 | 0.81
B7 | 0.70
B8 | 0.33
B9 | 1.72 and 1.723
B10 | 0.86
B11 | 0.94 and 0.936
B12 | 1.54
B13 | 0.76 and 0.763
B14 | 1.90 and 1.896
B15 | 0.60 and 0.626
B16 | 1.34
B17 | 0.91
B18 | 0.13
B19 | 0.24
B20 | 1.29
B21 | 1.27 and 1.272
B22 | 1.76

Assay: Probe fluorescence ratio response to linoleic acid relative to ADIFAB2
Format: binding
Conditions: response relative to ADIFAB2
In short: as §1

Molecule | DR/DR LA
B1 | 0.42
B2 | 0.17
B3 | 0.72
B4 | 0.41
B5 | 1.25
B6 | 0.81
B7 | 0.79
B8 | 0.32
B9 | 1.73
B10 | 0.96
B11 | 0.98 and 0.977
B12 | 1.57
B13 | 0.84 and 0.837
B14 | 1.68 and 1.684
B15 | 0.62 and 0.619
B16 | 1.33
B17 | 1.01
B18 | 0.12
B19 | 0.25
B20 | 1.31
B21 | 1.29 and 1.285
B22 | 1.73
